# T1: FtsZ of S. coelicolor, C-terminal His-tag fusion (Streptomyces coelicolor, UniProt P45500 1-399)
# T1 sequence (looked up): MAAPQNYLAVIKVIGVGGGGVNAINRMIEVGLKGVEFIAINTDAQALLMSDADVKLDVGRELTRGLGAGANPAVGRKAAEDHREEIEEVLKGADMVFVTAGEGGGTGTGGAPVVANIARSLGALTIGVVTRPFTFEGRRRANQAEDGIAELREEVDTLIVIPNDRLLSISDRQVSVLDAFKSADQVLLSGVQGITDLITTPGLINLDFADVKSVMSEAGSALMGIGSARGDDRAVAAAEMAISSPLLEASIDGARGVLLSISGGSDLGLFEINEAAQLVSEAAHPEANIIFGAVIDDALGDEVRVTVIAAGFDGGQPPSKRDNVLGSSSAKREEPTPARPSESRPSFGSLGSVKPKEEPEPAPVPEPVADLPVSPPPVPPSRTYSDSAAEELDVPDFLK
# Columns and labels:
# [1] = biological target: SsgB of S. coelicolor, wild type, His6-tagged (Streptomyces coelicolor) (UniProt Q9L268); assay: SEC
# [2] = biological target: SsgB of S. coelicolor, wild type, His6-tagged (Streptomyces coelicolor) (UniProt Q9L268); assay: crystal structure
# [3] = biological target: T1, FtsZ of S. coelicolor, C-terminal …; assay: co-sedimentation
Molecule,stoichiometry N [1],stoichiometry N [2],binding result [3]
"SsgB of S. coelicolor, wild type, His6-tagged (from UniProt Q9L268 1-137) (natural protein)",3,3,
"SsgB of S. coelicolor, wild type, His6-tagged (natural protein, Streptomyces coelicolor, UniProt Q9L268 1-137, looked up) MNTTVSCELHLRLVVSSESSLPVPAGLRYDTADPYAVHATFHTGAEETVEWVFARDLLAEGLHRPTGTGDVRVWPSRSHGQGVVCIALSSPEGEALLEAPARALESFLKRTDAAVPPGTEHRHFDLDQELSHILAES",,,binds
"SsgB E120G of S. coelicolor, His6-tagged (natural protein, Streptomyces coelicolor, UniProt Q9L268 1-137, looked up) MNTTVSCELHLRLVVSSESSLPVPAGLRYDTADPYAVHATFHTGAEETVEWVFARDLLAEGLHRPTGTGDVRVWPSRSHGQGVVCIALSSPEGEALLEAPARALESFLKRTDAAVPPGTGHRHFDLDQELSHILAES",,,binds
"SsgB E120A of S. coelicolor, His6-tagged (natural protein, Streptomyces coelicolor, UniProt Q9L268 1-137, looked up) MNTTVSCELHLRLVVSSESSLPVPAGLRYDTADPYAVHATFHTGAEETVEWVFARDLLAEGLHRPTGTGDVRVWPSRSHGQGVVCIALSSPEGEALLEAPARALESFLKRTDAAVPPGTAHRHFDLDQELSHILAES",,,binds

# Reference: doi:10.1101/860916 (bioRxiv, 2019)
